PMC4046817

How the values were obtained:
Conditions in all cases: EMSA/footprinting in LrpB binding buffer (ref. 27); composition, pH and temperature not given
[1] = biological target: T1, Ss-LrpB (Sulfolobus solfataricus P2?) (UniProt Q7LX67); experiment: EMSA
T1 sequence: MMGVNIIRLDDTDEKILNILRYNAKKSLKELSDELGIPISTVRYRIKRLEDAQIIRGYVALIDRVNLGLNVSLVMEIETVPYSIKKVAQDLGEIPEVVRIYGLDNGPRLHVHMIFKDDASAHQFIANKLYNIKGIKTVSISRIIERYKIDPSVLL

[2] = tested on: Ss-LrpB (Sulfolobus solfataricus P2?); experiment: EMSA
[3] = biological target: T1, Ss-LrpB (Sulfolobus solfataricus P2?); experiment: in-gel Cu-OP footprinting

Substance | binding [1] | other results
CGCATTAGAAGTAAAGAACGTAAATACTATGGCAGGAGTGTTATTACCAGCAAGGAACTTGGCATTAGCTAGGGAAATGGGGGCCGATGCGGTAGTTTCAGCTTGTCCTGGTTGTCACTATTCCTTATCTAGAACTCAATATTATCTGACTAAATACCCCAAATTAAGAGAAAAGACTAATATGTATTTAGAAAAAATGGGTACTAAGAATTATGATCTAAAGTTAATGCTAGTTCACGCTGTTGAATATATTTACAATA (double strand) [Sso1135 fragment] | binds | –
Sso0049 Box 1 fragment | – | Kd [2]: 150 nM
AGTATCTCGTTAATAACATCGTCTTTGTTACCTTCAAAGAACTCTGCATATATTATTTCGTCGTAAAGAATTAGATATCCTTTTGCACTAGTCAGCAGAGAATATTTATATCCTCTACATCCCTCACAATAACCTCTAACCTCTTTAACTAGTAAATGTTCAATCACAGATAGTTTAATATTTCCTTTTTCAATTATTTCTATATCATTATCTTTTTTAACTGATAATCTCTTAGCTAAATAATAAAGTGCGACCTGA (double strand) [Ssot36 fragment] | no binding | –
ATATGTATATTCAAGCCATTTAGATGAGATAAGGAAAAATAAAGAATTCTATGATATGATTGCAGAGATACTACAAAGGTATTACAAAAAAATAGGCATAGAGAATGTGAATCAGTTGATACTAACTACTATAAAATAGTTCGTATGTCGAACCTTTCTTTACCGAATTCATTATATATCC (double strand) [Sso6904 fragment] | no binding | –
AATCTTTCATTCCTCCTCTTATATGGATTATTACTGGTTTGTTTTCTTTTTCGGCTATTTGCAAAAATTTCTCCAGAACTTCTATTTGTTTTTTCCTAAGATCCTCGTCTTTTATCCAAAAGTAATCTAAACCGACTTCACTTATTATCTTCCCATACCTAGTTAATTCCAAACACTTATCAATCTCATTAACCTTATCCTTTACAAATTCTGGATG (double strand) [Sso0046 fragment] | no binding | –
CCTTTACTCTTCATGCGACCAATTTTAGTTGTAATTAATTTAACAATTTCTGGTCGCAAGGATTTTATGTTAAATTGAAACATTGGGTATCATTTATAAACGTTCAATTATTATAGAAAGATTCGTTTCGGTCGCATTGAGACTCGAACTTTCACACTTTTAAACAACTTCATAAAAACGAAGTTTGAAGTTCTCTATTTGATAATAATGTTTCACTGATTTCGTATCATATCGAAAAATATTTTTTATCTCTTATCGCTCTCCTTTCATC (double strand) [CRISPR4 (CRISPR B leader) fragment] | – | Kd [1]: 63 nM; binding [3]: binds
TGGAGAAGATGACGAAATGGTATTAAAGGAACATTCAATTACCTTATGTGATACAATAAAAAGGATGGGAGGGGATTGCGAGTTGCATATAATTCCGAAAATGAAGCACACACCTTTAGGGCAACAGTATCAAACAATTTGGAGTATAATTGAGGATTGGATAAAGAGGAATAGTTCTAGTTTTTAACCAGTTTGTGCCCAGTTCTCATACCTCATGAGTTCATTTCTACCCTTATCTTTAGCCACAATGTCTAGA (double strand) [Sso1433 fragment] | binds | –
CRISPR4 (CRISPR B leader) fragment | – | Kd [2]: 63 nM
